Patent US20140249076A1 (AstraZeneca / MedImmune, published 2014)
Numbered stars: 1 amine (or outer) side, 2 acyl side, 3 side chain; on linkers, the order of the positions; unused ones are H or OH. Side chains are listed from the residue outwards. Ends that are not written are not given here. γGlu = O=C(O)[C@H](CCC(=O)[*:2])N[*:1]

B1: Cmpd 195 (Kε-(γ-Glu(Nα-C16-Chain))-Cmpd 17) (peptide)
peptide: K([γGlu-C16‑Chain])KCNTATCALQRLAQELHRLQTYPRTNVGSNTY-NH2
modifications: ends and bridges not checked
notes: The description is read as an extra acylated Lys placed before the N-terminus of Cmpd 17
B2: Cmpd 17 (peptide)
peptide: KCNTATCALQRLAQELHRLQTYPRTNVGSNTY-NH2
modifications: ends and bridges not checked
notes: Parent peptide of the fatty acid acylated compounds

The binders below were run against T1, CGRP receptor (SK-N-MC cell membranes) (UniProt Q16602 23-461; O60894 27-148) (assay: displacement of 125I-human CGRP from SK-N-MC cell membranes).
T1 construct: whole, on cells
T1 sequence (Q16602 23-461, chain 1 of 2): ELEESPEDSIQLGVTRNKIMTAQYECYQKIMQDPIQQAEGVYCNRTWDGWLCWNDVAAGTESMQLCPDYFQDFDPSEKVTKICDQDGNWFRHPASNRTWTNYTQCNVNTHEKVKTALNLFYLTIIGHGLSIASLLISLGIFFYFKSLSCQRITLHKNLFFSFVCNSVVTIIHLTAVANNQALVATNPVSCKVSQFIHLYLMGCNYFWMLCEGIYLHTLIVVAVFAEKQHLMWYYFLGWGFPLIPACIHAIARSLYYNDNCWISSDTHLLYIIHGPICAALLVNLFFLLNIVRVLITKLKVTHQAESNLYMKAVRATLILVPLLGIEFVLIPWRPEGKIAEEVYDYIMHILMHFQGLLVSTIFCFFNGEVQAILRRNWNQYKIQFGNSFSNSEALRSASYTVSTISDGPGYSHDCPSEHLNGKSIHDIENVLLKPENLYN
T1 sequence (O60894 27-148, chain 2 of 2): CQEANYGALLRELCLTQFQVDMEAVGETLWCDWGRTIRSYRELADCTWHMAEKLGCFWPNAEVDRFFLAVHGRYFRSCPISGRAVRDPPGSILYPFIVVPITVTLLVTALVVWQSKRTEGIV
From the text: Dried glass fiber plates were combined with scintillant and counted on a multiwell Perkin Elmer scintillation counter.

Row | IC50 [nM] | Binder
1 | 4.45 | K([γGlu-C16‑Chain])CNTATCALQRLAQELHRLQTYPRTNVGSNTY-NH2 (ends and bridges not checked, Lys 1 is already present in Cmpd 17) [Cmpd 192 ([K^1ε-(γ-Glu(Nα-C16-Chain))]-Cmpd 17)]
2 | 0.603 | B1
3 | 1.26 | B2

The binders below were run against T2, amylin receptor (RNA membranes) (assay: displacement of 125I-rat amylin from RNA membranes).
T2 construct: Membrane preparation
From the text: Dried glass fiber plates were combined with scintillant and counted on a multi-well Perkin Elmer scintillation counter, as well known in the art.

Row | IC50 [nM] | Binder
4 | 0.518 | K([γGlu-C16‑Chain])CNTATCALQRLAQELHRLQTYPRTNVGSNTY-NH2 (ends and bridges not checked, Lys 1 is already present in Cmpd 17) [Cmpd 192 ([K^1ε-(γ-Glu(Nα-C16-Chain))]-Cmpd 17)]
5 | 0.137 | B1
6 | 0.028 | B2
